The values that follow come from patent publication US20040115738A1 (INNATE PHARMA, published 2004).

Experiment [1] concerns the target T1, FcεRIγ (UniProt P30273 19-86).
T1 construct: Endogenous protein in NK cell lysates; also called FcεFRIγ (as misprinted)
T1 sequence (looked up): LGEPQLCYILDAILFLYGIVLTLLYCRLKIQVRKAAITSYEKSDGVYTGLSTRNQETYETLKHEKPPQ
Briefly: co-immunoprecipitation (data not shown).

Experiment [2] deals with T2, DAP12 (UniProt O43914 22-113).
T2 construct: Endogenous protein in NK cell lysates
T2 sequence (O43914 22-113 limits assumed): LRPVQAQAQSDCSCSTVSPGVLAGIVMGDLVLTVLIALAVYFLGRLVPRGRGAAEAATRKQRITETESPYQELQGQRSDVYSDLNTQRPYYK
Briefly: co-immunoprecipitation (data not shown).

B1: NKp80 (receptor)
chain: MQDEERYMTLNVQSKKRSSAQTSCLTFKDYSVTLHWYKILLGISGTVNGILTLTLISLILLVSCGVLLKCQKGSCSNATQYEDTGDLKVNNGTRRNISNKDLCASRSADQTVLCQSEWLKYQGKCYWFSNEMKSWSDSYVYCLERKSHLLIIHDQLEMAFIQKNLRQLNYVWIGLNFTSLKMTWTWVDGSPIDSKIFFIKGPAKENSCAAIKESKIFSETCSSVFKWICQY
notes: 231 aa type II transmembrane protein; On the NK cell surface it is a dimer (80 kD non-reduced, about 40 kD reduced); Tested on human NK cells, in lysates of 125I-labeled NK cells, and on 293T cells transfected with VR1012-ML; also called MA152-reactive molecule; MA152 mAb-reactive molecule
As to B1, the binding result in experiment [1] and in experiment [2] was “no binding” in each case.
